The target of this assay is IL10Rβ on human cell lines (HT-29, HEK-293T) (human (cells stated as human)) (UniProt Q08334). As to the kind of experiment: cell-based or functional assay.
Sequence of IL10Rβ on human cell lines (HT-29, HEK-293T) (human (cells stated as human)) (Q08334 20-325): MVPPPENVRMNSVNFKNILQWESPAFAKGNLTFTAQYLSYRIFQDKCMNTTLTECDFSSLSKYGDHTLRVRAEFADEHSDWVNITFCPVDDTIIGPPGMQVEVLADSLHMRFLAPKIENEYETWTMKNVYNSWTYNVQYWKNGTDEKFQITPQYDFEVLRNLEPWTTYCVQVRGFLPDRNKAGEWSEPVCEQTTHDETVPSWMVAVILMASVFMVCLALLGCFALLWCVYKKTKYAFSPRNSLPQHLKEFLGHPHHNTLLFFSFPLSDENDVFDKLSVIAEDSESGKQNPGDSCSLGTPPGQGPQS

“22-B3 (mouse IL-22 S45E/Q116A/K124A/Q128A) (from UniProt Q9JJY9 34-179) (ligand)” showed an Emax for STAT1 (phospho-Y701-STAT1) in HT-29 cells, phospho-flow (% of the WT IL-22 Emax) of 30 and an Emax for STAT3 (phospho-Y705-STAT3) in HT-29 cells, phospho-flow (% of the WT IL-22 Emax) of 100.

For the origin of these results see patent US20230192794A1.
